Experiment [1] has as its target cell-surface SIRPα (mDC) (human) (UniProt P78324). As to the kind of experiment: FACS blocking of CD47/SIRPα; Donor #298; isotype control, flat curve.
Experiment [2] shares this target. Kind of experiment: FACS blocking of CD47/SIRPα; Donor #296; isotype control, flat curve.
Experiment [3] has as its target mDC cell surface SIRPα (human) (UniProt P78324). As to the kind of experiment: FACS binding; Donor #298; isotype control, flat curve. Background: A flow cytometer gives signals particle by particle.
Experiment [4] shares this target. As to the kind of experiment: FACS binding; Donor #296; isotype control, flat curve.
Experiment [5] deals with human SIRPα expressed on the surface of human monocyte-derived dendritic cells (human) (UniProt P78324). Kind of experiment: flow cytometry on human monocyte-derived dendritic cells.

IC50, EC50 and Kd data for two substances are collected here from patent US20230340112A1.

For orientation: IC50 means the midpoint of a concentration-inhibition curve. Read a low IC50 as higher potency. As usually defined, the EC50 is the midpoint of the concentration-response curve. High values mean a less potent agent, low ones a more potent agent. As a reminder, the Kd is the constant that tells how readily two partners part at equilibrium. Low readings indicate higher affinity, high ones lower affinity.

Chain of cell-surface SIRPα (mDC) (human) (P78324 31-504): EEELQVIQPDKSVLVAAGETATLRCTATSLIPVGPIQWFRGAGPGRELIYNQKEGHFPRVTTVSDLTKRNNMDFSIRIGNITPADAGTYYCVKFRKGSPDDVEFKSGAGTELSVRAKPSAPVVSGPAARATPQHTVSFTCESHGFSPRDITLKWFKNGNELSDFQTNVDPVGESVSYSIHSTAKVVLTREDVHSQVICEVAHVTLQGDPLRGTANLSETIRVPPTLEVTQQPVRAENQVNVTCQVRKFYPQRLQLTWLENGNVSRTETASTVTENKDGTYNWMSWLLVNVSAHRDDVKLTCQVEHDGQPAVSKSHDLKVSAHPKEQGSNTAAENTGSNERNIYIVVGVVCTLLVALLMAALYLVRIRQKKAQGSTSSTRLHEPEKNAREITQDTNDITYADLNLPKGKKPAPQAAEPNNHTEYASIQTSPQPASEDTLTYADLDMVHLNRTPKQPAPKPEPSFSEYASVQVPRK
Chain of mDC cell surface SIRPα (human) (P78324 31-504): as above
Chain of human SIRPα expressed on the surface of human monocyte-derived dendritic cells (human) (P78324 31-504): as above

As for IgG4 isotype, the figures for the IC50 in experiment [1] and in experiment [2] were 0.0177 nM and 0.424 nM, respectively. Moreover, the EC50 turned out to be 0.025 nM in experiment [3] and 38.6 nM in experiment [4].

The substance IgG4 isotype (antibody) had a Kd in experiment [5] of 0.0021 nM.
